In ChEMBL document CHEMBL4402607, “Molecular Basis for Omapatrilat and Sampatrilat Binding to Neprilysin-Implications for Dual Inhibitor Design with Angiotensin-Converting Enzyme” (J Med Chem, 2020):

Substrate: N=C(N)NCCC[C@H](NC(=O)[C@H](Cc1ccccc1)NC(=O)[C@@H]1CCCN1C(=O)[C@H](CO)NC(=O)[C@H](Cc1ccccc1)NC(=O)CNC(=O)[C@@H]1CCCN1C(=O)[C@@H]1CCCN1C(=O)[C@@H](N)CCCNC(=N)N)C(=O)O
Assay: Substrate activity at human ACE expressed in CHO cells by HPLC analysis
Type: cell-based

B1: Angiotensin-converting enzyme (Homo sapiens), P12821 (protein)
chain: MGAASGRRGPGLLLPLPLLLLLPPQPALALDPGLQPGNFSADEAGAQLFAQSYNSSAEQVLFQSVAASWAHDTNITAENARRQEEAALLSQEFAEAWGQKAKELYEPIWQNFTDPQLRRIIGAVRTLGSANLPLAKRQQYNALLSNMSRIYSTAKVCLPNKTATCWSLDPDLTNILASSRSYAMLLFAWEGWHNAAGIPLKPLYEDFTALSNEAYKQDGFTDTGAYWRSWYNSPTFEDDLEHLYQQLEPLYLNLHAFVRRALHRRYGDRYINLRGPIPAHLLGDMWAQSWENIYDMVVPFPDKPNLDVTSTMLQQGWNATHMFRVAEEFFTSLELSPMPPEFWEGSMLEKPADGREVVCHASAWDFYNRKDFRIKQCTRVTMDQLSTVHHEMGHIQYYLQYKDLPVSLRRGANPGFHEAIGDVLALSVSTPEHLHKIGLLDRVTNDTESDINYLLKMALEKIAFLPFGYLVDQWRWGVFSGRTPPSRYNFDWWYLRTKYQGICPPVTRNETHFDAGAKFHVPNVTPYIRYFVSFVLQFQFHEALCKEAGYEGPLHQCDIYRSTKAGAKLRKVLQAGSSRPWQEVLKDMVGLDALDAQPLLKYFQPVTQWLQEQNQQNGEVLGWPEYQWHPPLPDNYPEGIDLVTDEAEASKFVEEYDRTSQVVWNEYAEANWNYNTNITTETSKILLQKNMQIANHTLKYGTQARKFDVNQLQNTTIKRIIKKVQDLERAALPAQELEEYNKILLDMETTYSVATVCHPNGSCLQLEPDLTNVMATSRKYEDLLWAWEGWRDKAGRAILQFYPKYVELINQAARLNGYVDAGDSWRSMYETPSLEQDLERLFQELQPLYLNLHAYVRRALHRHYGAQHINLEGPIPAHLLGNMWAQTWSNIYDLVVPFPSAPSMDTTEAMLKQGWTPRRMFKEADDFFTSLGLLPVPPEFWNKSMLEKPTDGREVVCHASAWDFYNGKDFRIKQCTTVNLEDLVVAHHEMGHIQYFMQYKDLPVALREGANPGFHEAIGDVLALSVSTPKHLHSLNLLSSEGGSDEHDINFLMKMALDKIAFIPFSYLVDQWRWRVFDGSITKENYNQEWWSLRLKYQGLCPPVPRTQGDFDPGAKFHIPSSVPYIRYFVSFIIQFQFHEALCQAAGHTGPLHKCDIYQSKEAGQRLATAMKLGFSRPWPEAMQLITGQPNMSASAMLSYFKPLLDWLRTENELHGEKLGWPQYNWTPNSARSEGPLPDSGRVSFLGLDLDAQQARVGQWLLLFLGIALLVATLGLSQRLFSIRHRSLHRHSHGPQFGSEVELRHS
B1 was tested, and the Km was 0.18 µM.
